Experimental data taken from the supplement of paper PMC6755084.

B1: minF1; the commonest letter at each place (parent)
chain: GAGACCGCAACTGAAAAGTTGTTATCAGAAATGGATGGGTTGAATTTCTGCACGTAGAAGCAAAAGGC

Variants of: B1
Experiment: fraction ligated after 30 min (ligated reads / total reads); higher = more ligase activity
Settings: with F1*subA RNA substrate (template-directed ligation), 42 °C
Outline: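 RNAs for minimized ligase ribozyme variants were transcribed with T7 from PCR-amplified oligo-pool templates and purified on gels. Ligated and unligated species were resolved on gels, converted to cDNA with barcoded primers, and read on a MiSeq with core bases filtered at quality ≥30. Fraction ligated per variant is the ratio of ligated reads to total reads.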

Variant | fraction ligated
T23C G33C | 0.147
T25A C26G | 0.00462
T23G G37C | 0.00547
A24C T25C | 0.0235
A24C T25A | 0.0142
A24C T25G | 0.0197
A27G T36C | 0.0221
T23G A35T | 0.031
T23G A35G | 0.247
A24C C26A | 0.0482
A24C C26G | 0.032
T25C A27C | 0.113
T23G T36C | 0.0436
T23G T32G | 0.0266
T23G T32A | 0.084
A30G A31T | 0.836
T23A T36C | 0.012
T36C A43T | 0.00367
T36C A43G | 0.00496
A29C A43G | 0.0549
T36C A44T | 0.0101
C26G A27T | 0.0725
T32A T36C | 0.00204
T32A T36A | 0.00173

Variant | fraction ligated
A31C A44G | 0.754
G33A A43T | 0.0914
A29G A31G | 0.795
T23C G37A | 0.00595
T23C G37C | 0.00507
T25G G33C | 0.00397
A24T T36C | 0.00304
G42C A43G A44C | 0.000834
G42A A43G A44G | 0.00352
T25C G33A | 0.0508
G28C A31G | 0.798
A24C A43C | 0.0036
G33C | 0.804
G33T | 0.605
A24G | 0.122
A31T G34A | 0.071
A27G G42A | 0.361
A31G A43G | 0.101
G33A G37T | 0.0175
G42A A43T | 0.00678
T25G G28T | 0.0241
G33A A44C | 0.479
G33A A44G | 0.576
C26A A35G | 0.00416

Variant | fraction ligated
T25G A44C | 0.00312
T25G A44G | 0.00956
G34A A35T | 0.0147
T23A | 0.215
A31G G34T | 0.00852
A31T A43G | 0.157
A30G G33C | 0.805
G37C G42T | 0.00137
G33A G34A | 0.334
A24G G34C | 0.00145
T23G A30T | 0.806
T23G A30G | 0.803
G42A A43C A44G | 0.00203
G28T A43G | 0.0967
A30G T36A | 0.0286
A30G T36C | 0.0152
A31G G33T | 0.567
G33T G34C | 0.00646
T23A A44C | 0.0208
A35G G37C | 0.0017
T23A C26G | 0.00512
T23G G28C | 0.8
T23G G28A | 0.798
G34T G42T | 0.00241

Variant | fraction ligated
T23G G42C | 0.00862
T23G A44T | 0.792
A31G G37C | 0.00462
A30T T32C | 0.0167
T25A T32C | 0.00391
T23G T25G | 0.193
A24G G42C | 0.00119
C26G T32C | 0.00208
A27G G34T | 0.00742
A27C T36G | 0.0955
A24G T32A | 0.00439
T23C A27T | 0.595
T23C A27G | 0.354
G28T G42A | 0.359
T25A G33T | 0.00763
A24G G37A | 0.00154
T25A G42A | 0.00144
A27C G33A | 0.835
T23A A31C | 0.181
A35G A44T | 0.105
T25C C26T | 0.079
T32C G37C | 0.00446
G28A G33A | 0.791
A27T A30T | 0.834

Variant | fraction ligated
T23G A29C | 0.824
A29T G37A | 0.00694
T32A A44C | 0.0377
C26A A27G | 0.481
G42T A43T A44C | 0.00206
A31T T36G | 0.0351
G37T A43C | 0.00313
G28T A31T | 0.827
G33C G34T | 0.00568
G37A G42A | 0.00332
T32A G33T | 0.0384
G34T A43C | 0.00412
C26T G28A | 0.362
A24T A43C | 0.00315
A29G A44C | 0.649
A31G G42C | 0.0118
C26A A29C | 0.0944
T23C G28A | 0.242
G28A A44T | 0.773
G28A A44C | 0.667
T23A G34A | 0.0227
T23C G42T | 0.00449
T23C G42C | 0.00249
T25C | 0.0278

Variant | fraction ligated
A24T G42T | 0.00308
A24T G42C | 0.00191
A24T G42A | 0.00238
A31T T32A | 0.0898
T32C A43G | 0.0128
G28C A30T | 0.825
G33C A35T | 0.0199
A29G G33A | 0.8
T32G G37C | 0.0035
T23C T36A | 0.0123
A29G A35G | 0.204
A27C A30T | 0.403
A27C A30C | 0.465
G42A A43T A44G | 0.000353
A27T A44G | 0.825
G42C A43T A44T | 0.00299
A24G A35G | 0.0312
A24G A35C | 0.0163
T25C A29C | 0.0251
T25C A29G | 0.0416
C26T G42T | 0.00392
A35G G42T | 0.00567
A30G A44T | 0.809
T25A T36C | 0.00785

Variant | fraction ligated
G28A A43T | 0.102
G28A A43G | 0.0763
A24T A31T | 0.00682
A30C G37C | 0.00447
A30C G37T | 0.01
A27C A29C | 0.623
A27C A29T | 0.501
C26G T36C | 0.00195
A30T G37C | 0.0041
T25A A27T | 0.0564
A30T A43T | 0.0685
A30T A43C | 0.0532
T25C A31T | 0.0613
A24C G33C | 0.00418
A24C G33A | 0.0216
A35T A43T | 0.00405
A43C A44G | 0.00638
A43C A44T | 0.00456
A30T A44C | 0.52
A24T T25A | 0.0063
A24T T25C | 0.0313
T23C C26G | 0.00264
G34T T36C | 0.00276
